Measurements reported in patent US20250346673A1 (DUALITY BIOLOGICS SUZHOU, published 2025).

T1: human FcγRIIA (H167) (human, UniProt P12318 36-218, limits assumed, biotinylated (site not stated))
T1 construct: also called Fey RIIA (H167)
T1 sequence (looked up): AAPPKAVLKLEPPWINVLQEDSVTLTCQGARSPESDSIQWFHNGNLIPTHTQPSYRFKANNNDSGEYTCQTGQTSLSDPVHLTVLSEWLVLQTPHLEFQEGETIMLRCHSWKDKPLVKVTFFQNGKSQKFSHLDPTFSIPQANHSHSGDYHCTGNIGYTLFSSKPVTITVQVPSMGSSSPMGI

T2: human FcγRIIA (R167) (human, UniProt P12318 36-218, limits assumed, biotinylated (site not stated))
T2 construct: also called Fe γ RIIA(R167); Fcγ RIJA (R167)
T2 sequence (looked up): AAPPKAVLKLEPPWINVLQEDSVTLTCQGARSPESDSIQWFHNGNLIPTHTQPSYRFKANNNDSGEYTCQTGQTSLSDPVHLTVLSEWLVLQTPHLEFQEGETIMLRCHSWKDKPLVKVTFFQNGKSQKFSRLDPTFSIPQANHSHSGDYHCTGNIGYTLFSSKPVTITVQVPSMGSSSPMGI

T3: human BDCA2 (human, UniProt Q8WTT0 1-213)
T3 construct: whole, on cells; also called hBDCA2; Blood dendritic cell antigen 2
T3 sequence (looked up): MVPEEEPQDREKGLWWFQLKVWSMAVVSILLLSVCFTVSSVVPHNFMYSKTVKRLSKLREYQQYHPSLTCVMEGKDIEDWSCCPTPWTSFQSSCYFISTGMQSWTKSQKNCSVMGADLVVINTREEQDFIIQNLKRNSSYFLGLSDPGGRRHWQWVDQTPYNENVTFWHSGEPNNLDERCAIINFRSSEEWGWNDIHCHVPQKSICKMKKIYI

T4: Recombinant Human BDCA2 (human, UniProt Q8WTT0 45-213, limits assumed)
T4 construct: also called hBDCA2 (SPR analyte); human BDCA2 antigen
T4 sequence (looked up): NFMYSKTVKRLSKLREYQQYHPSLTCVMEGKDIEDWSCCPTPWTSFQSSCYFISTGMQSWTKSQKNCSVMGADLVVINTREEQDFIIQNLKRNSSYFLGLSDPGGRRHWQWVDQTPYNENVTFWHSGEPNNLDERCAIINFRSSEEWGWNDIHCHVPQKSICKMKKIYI

T5: cynomolgus BDCA2 (cynomolgus monkey, UniProt A0A2K5UWP4 1-212)
T5 construct: whole, on cells; also called Cyno BDCA2; cynoBDCA2
T5 sequence: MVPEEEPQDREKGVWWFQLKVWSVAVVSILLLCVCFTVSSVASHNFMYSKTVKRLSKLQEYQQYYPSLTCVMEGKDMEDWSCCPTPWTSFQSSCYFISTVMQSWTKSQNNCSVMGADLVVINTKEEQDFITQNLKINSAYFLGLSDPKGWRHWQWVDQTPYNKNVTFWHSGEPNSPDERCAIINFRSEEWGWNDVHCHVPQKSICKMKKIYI

B1: Hu033-20 (antibody, human IgG1, kappa)
heavy: not shown
light: DIVMTQSPDSLAVSLGERATINCRASESVSFRTSHLMHWYQQKPGQPPKLLIYGASNLESGVPDRFSGSGSGTDFTLTISSLQAEDVAVYYCQQSIEDPPTFGGGTKVEIKRTVAAPSVFIFPPSDEQLKSGTASVVCLLNNFYPREAKVQWKVDNALQSGNSQESVTEQDSKDSTYSLSSTLTLSKADYEKHKVYACEVTHQGLSSPVTKSFNRGEC
notes: Humanized IgG1, wild-type Fc; also called Hu033-20(BM3)
B2: mAb020 (antibody, V domains shown)
VH: DVQLQESGPGLVKPSQSLSLTCSVTGYSIASGYYWNWIRQFPGNKLEWMGYISFDGTYNYNPSLKDRFSITRDTSKNQFFLKLNSVTTEDTATYYCARGVDYPNAIDWWGQGTSVTVSS
VL: DIVLTQSPASLAVSLGQRATISCRASESVSMHVTHLIHWYQQKPGQPPKLLIYVASNLESGVPARFSGSGSETDFTLNIHPVEEEDAATYFCQQSFEDPWTFGGGTKLEIK
notes: Mouse hybridoma antibody
B3: mAb024 (antibody, V domains shown)
VH: EVQLVESGGDLVKPGGSLKLSCAASGFTFSSFGMSWVRQTPDKRLDWVATISSGDSYTYYPDSVKGRFSISRDNAKNTLYLQMSSLKSEDTAVYYCARQIYYDYAYYFDYWGQGTTLTVSS
VL: DIVLTQSPASLAVSLGQRATISCRASESVSFRSSHLMHWYRQKPGQPPKLLIYAASNLESGVPARFSGSGSETDFTLNIHPVEEEDAAAYFCQQSIEDPPTFGGGTKLEIK
notes: Mouse hybridoma antibody
B4: mAb022 (antibody, V domains shown)
VH: DVQLQESGPGLVKPSQSLSLTCSVTGYSITSGYYWNWIRQFPGNKLEWMGYISFDGTYNYNPSLKDRFSITRDTSKNQFFLKLNSVTTEDTATYYCARGVDYPKAMDWWGQGTSVTVSS
VL: DIVLTQSPASLAVSLGQRATISCRASESVSMHVTHLIHWYQQKPGQPPKLLIYVASNLESGVPARFSGSGSETDFTLNIHPVEEEDAATYFCQQSFEDPWTFGGGTKLEIK
notes: Mouse hybridoma antibody
B5: mAb030 (antibody, V domains shown)
VH: DVQLQESGPGLVKPSQSLSLTCSVTGYSITSAYYWNWIRQFPGNKLECMGYISYDGSNYYNPSLKNRISITRDTSKNQFFLSLNSVTTEDTATYFCVRGGDYDDGGFAYWGQGTLVTVSA
VL: DIQMTQSPASLSASVGETVTITCRASGNIHNYLAWYQQKQGKSPQLLVYNAKTLADGVPSRFSGSGSETQYSLKINSLQPEDFGNYFCQHFWIIPYTFGGGTKLEIK
notes: Mouse hybridoma antibody
B6: mAb027 (antibody, V domains shown)
VH: DVQLQESGPGLVKPSQSLSLTCSVTGYSITSAYYWNWVRQFPGNQLECMGYITYDGSNNYNPSLKNRISITRDTSKNQFFLKLNSVTTEDTATYYCVRGGDYDDGGFAYWGQGTLVTVSA
VL: DIQMTQSPASLSASVGETVTITCRASGNIHNYLAWYQQKQGKSPQLLVYNAKTLVDGVPSRFSGSGSGTEYSLKINSLQPEDFGIYFCQHFWIIPYTFGGGTKLEIR
notes: Mouse hybridoma antibody
B7: Hu033-03 (antibody, human IgG1, kappa)
heavy: not shown
light: DIVLTQSPASLAVSPGQRATITCRASESVSFRTSHLMHWYQQKPGQPPKLLIYGASNLESGVPARFSGSGSETDFTLTINPVEAEDTANYFCQQSIEDPPTFGGGTKVEIKRTVAAPSVFIFPPSDEQLKSGTASVVCLLNNFYPREAKVQWKVDNALQSGNSQESVTEQDSKDSTYSLSSTLTLSKADYEKHKVYACEVTHQGLSSPVTKSFNRGEC
notes: Humanized IgG1, wild-type Fc; also called Hu033-03(BM3)
B8: mAb019 (antibody, V domains shown)
VH: EVKLVESGGDLVQPGGSLKLSCAASGFTFSDYYMYWVRQTPEKRLEWVAYISYSGDSTYYPDTVKGRFTISRDNAKNTLFLQMSRLKSEDTAMYYCARHSPSFPYYFDYWGQGTALTVSS
VL: EIVLTQSPAITAASLGQKVTITCSASSSVSYMHWYQQKSGTSPKPWIYEISKLASGVPARFSGSGSGTSYSLTISSMEAEDAAIYYCQLWNYPLITFGGGTNLEIK
notes: Mouse hybridoma antibody

What was measured:
human FcγRIIA (H167) = target: T1, human FcγRIIA (H167); test: SPR (BIAcore 8K), biotinylated FcγRIIA (H167) on SA chip, antibody as analyte, 1:1 binding
Method: (§1) Antibody kinetics or affinity parameters were measured using BIAcore 8K and freshly fixed biotinylated human Fe γ RIIA(R167)/Fc γ RIIA (H167) SA chips. The experiment was run at 25° C. with a running buffer of 1×HBS-EP+(10 mM HEPES pH 7.4, 150 mM NaCl, 3 mM EDTA, 0.05% Surfactant P20). […] The binding and dissociation times of the antibody were 60 and 90 seconds, respectively. Two zero concentration samples are used to remove background signals. The sample was injected in a multi cycle manner, the analyte can be fully dissociated from the chip surface at the end of each cycle, and no regeneration step was applied. Data analysis was perform using Biacore Insight Evaluation Software (Version 2.0.15.12933). After deducting the reference channel (flow cell 1) and two zero concentration signals, affinity analysis was performed using a 1:1 binding model or steady-state model for curve fitting and calculation of kinetic parameters.

human FcγRIIA (R167) = target: T2, human FcγRIIA (R167); test: SPR (BIAcore 8K), biotinylated FcγRIIA (R167) on SA chip, antibody as analyte, 1:1 binding
Method: as §1

human BDCA2 [1] = target: T3, human BDCA2; test: FACS, CHOK1-humanBDCA2 cells
Method: (§2) The cells were recovered and resuspended to 2×10⁶/mL with FACS buffer (PBS+2% FBS). The resuspended cells were added to 3799 cell plates at 100 μL/well, and the supernatant was discarded after centrifugation at 300 g. […] The cells were incubated at 4° C. for 1 h. The incubated cells were centrifuged at […] for 5 min and washed twice with FACS buffer. 100 μL Goat anti-Human IgG (H+L) Cross-Adsorbed Secondary Antibody, Alexa Fluor 488 (Sigma, A11013; 1:1000) secondary antibody was added, washed twice with FACS buffer after incubation at 4° C. for 1 h. The cells were resuspended with PBS, then the fluorescence signal of antibodies bound to cell surface was analyzed with FACS (BD FACS CantoTM II) instrument and curves were fitted with GraphPad Prism6 to calculate EC₅₀ values for antibodies binding to BDCA2 antigen.

Recombinant Human BDCA2 = target: T4, Recombinant Human BDCA2; test: SPR (BIAcore), antibody captured by anti-human IgG (Fc), hBDCA2 as analyte, 1:1 model
Method: Then 1 M ethanolamine was injected at 10 μL/min flow rate for 420 seconds, and the excess active carboxyl groups on chip were blocked. The humanized antibodies were injected into a detection channel flow cell at flow rate of 10 μL/min for 60 s for capture after diluting to 1 μg/mL using running buffer. […] The sample hBDCA2 to be tested of each concentration gradient was injected into the detection channel at 30 μL/min flow rate, two samples at 0 concentration were used to remove background signal. The binding and dissociation times between antigen and antibody were 180 and 400 sec, respectively. An analysis of data was performed using Biacore Insight Evaluation Software (Version 2.0. 15.12933). A 1:1 binding model was selected for curve fitting and kinetic parameters were calculated after subtraction of signal of the reference channel (flow cell 1) and at 0 concentration.

human BDCA2 [2] = target: T3, human BDCA2; test: cell-based or functional assay
cynomolgus BDCA2 [3] = target: T5, cynomolgus BDCA2; test: FACS, 293F-cynoBDCA2 cells
Method: as §2

human BDCA2 [4] = target: T3, human BDCA2; test: cell-based or functional assay; remark: listed apart in the source
human BDCA2 [5] = target: T3, human BDCA2; test: FACS on CHOK1-hBDCA2 cells; EC50 table under the plot, unit from the x axis (nM) [continued) d.]
Method: (§3) The cells were recovered and resuspended to 2×10⁶/mL with FACS buffer (PBS+2% FBS). The cells were added to 3799 cell plates (Corning) at 100 μL/well, and the supernatant was discarded after centrifugation at 300 g. The antibodies were serially diluted with FACS buffer (Id.), the diluted antibodies were added to centrifuged cells and the cells were resuspended. The cells were incubated at 4° C. for 1 h. The incubated cells were then centrifuged at […] for 5 min and washed twice with FACS buffer. 100 μL Donkey anti-Mouse IgG (H+L) Highly Cross-Adsorbed Secondary Antibody-Alexa Fluor 488 (Invitrogen, A21202; 1:1000) secondary antibody was added to the cells, which were washed twice with FACS buffer after incubation at 4° C. for 1 h, resuspended with PBS, analyzed with FACS (BD FACS CantoTM II) instrument. The curve was fitted with GraphPad Prism6, and EC₅₀ values were calculated.

cynomolgus BDCA2 [6] = target: T5, cynomolgus BDCA2; test: FACS on 293F-cynoBDCA2 cells; EC50 table under the plot, unit from the x axis (nM) [continued) d.]
Method: as §3

Binder | Kd (human FcγRIIA (H167)) [nM] | koff (human FcγRIIA (H167)) [s⁻¹] | kon (human FcγRIIA (H167)) [M⁻¹ s⁻¹] | Kd (human FcγRIIA (R167)) [nM] | koff (human FcγRIIA (R167)) [s⁻¹] | kon (human FcγRIIA (R167)) [M⁻¹ s⁻¹] | EC50 (human BDCA2 [1]) [nM] | Kd (Recombinant Human BDCA2) [nM] | koff (Recombinant Human BDCA2) [s⁻¹] | kon (Recombinant Human BDCA2) [M⁻¹ s⁻¹] | EC50 (nM), inhibition of CpG-A stimulated IFNα release from human PBMC (human BDCA2 [2]) [nM] | EC50 (cynomolgus BDCA2 [3]) [nM] | IC50 for inhibiting cytokine IFNα release, CpG-A stimulated human PBMC (human BDCA2 [4]) [nM] | EC50 (human BDCA2 [5]) [nM] | EC50 (cynomolgus BDCA2 [6]) [nM]
B1 | 981 | 0.431 | 439000 | 578 | 0.838 | 1.45e+06 | 0.64 | 0.268 | 0.000149 | 556000 | 0.01 | 1.22 | – | – | –
B2 | – | – | – | – | – | – | – | – | – | – | – | – | 0.00615 | 0.707 | 1.9
B3 | – | – | – | – | – | – | – | – | – | – | – | – | 0.00274 | 0.343 | 1.04
B4 | – | – | – | – | – | – | – | – | – | – | – | – | 0.00623 | 0.723 | 1.96
B5 | – | – | – | – | – | – | – | – | – | – | – | – | 0.00476 | 0.293 | 0.566
B6 | – | – | – | – | – | – | – | – | – | – | – | – | 0.07 | 0.302 | 0.68
B7 | 941 | 0.339 | 361000 | 510 | 0.782 | 1.53e+06 | 0.5 | 0.236 | 0.000136 | 576000 | 0.01 | 1.4 | – | – | –
B8 | – | – | – | – | – | – | – | – | – | – | – | – | 0.00332 | 0.271 | 0.485
